The target in test [1] is T1, purified HLA-B*5401 (human).
T1 construct: Purified MHC class I molecule incubated with human b2m; also called B*54011
The test can be described thus: competition radioimmunoassay on purified HLA, radiolabeled standard peptide.
Source text: (§1) Supertype analysis. […] Under the conditions utilized, where [label]<[MHC] and IC₅₀≧[MHC], the measured IC₅₀ values are reasonable approximations of the true Kd values.

For test [2], the target named is T2, purified HLA-B*5301 (human).
T2 construct: Purified MHC class I molecule incubated with human b2m
The description is as above.
Source text: as §1

Test [3] deals with T3, purified HLA-B*0801 (human).
T3 construct: Purified MHC class I molecule incubated with human b2m; not officially part of the HLA-B7 supertype
The test is described as above.
Source text: as §1

Test [4] addresses T4, purified HLA-B*0702 (human).
T4 construct: Purified MHC class I molecule incubated with human b2m; complexes captured with W6/32 antibody; also called HLA-B7; immobilized purified HLA-B7 molecule
The test is described as above.
Source text: as §1

In test [5] the target is T4, purified HLA-B*0702. The test can be described thus: competition solid-phase radioimmunoassay on purified HLA-B7, radiolabeled standard peptide. The text has this:
Next, we assessed the actual binding avidity for HLA-B7 (HLA-B*0702). Two independent assays were used: binding stabilization assay on T2-B7 cells by flow cytometry (12) and a competitive solid-phase radioimmunoassay on immobilized purified HLA-B7 molecule (35).

Test [6] deals with T5, purified HLA-B*3501 (human).
T5 construct: Purified MHC class I molecule incubated with human b2m
Briefly: competition radioimmunoassay on purified HLA, radiolabeled standard peptide.
Source text: as §1

Test [7] addresses T6, purified HLA-B*5101 (human).
T6 construct: Purified MHC class I molecule incubated with human b2m
The test is described as above.
Source text: as §1

B1: hTRT peptide p966 (AGRNMRRKL) (peptide)
peptide: AGRNMRRKL
notes: Synthetic 9mer peptide of human telomerase reverse transcriptase
In test [1], B1 showed an IC50 of 34.1 µM.

B2: hTRT peptide p1107 (LPGTTLTAL) (peptide)
peptide: LPGTTLTAL
notes: as for B1
With B2, the IC50 in test [2] was 0.12 µM; in test [3], 0.192 µM; in test [4], 0.00096 µM; in test [5], 0.00096 µM.

B3: hTRT peptide p464 (FVRACLRRL) (peptide)
peptide: FVRACLRRL
notes: as for B1
Turning to B3, the IC50 in test [1] was 18.8 µM; in test [3], 0.123 µM; in test [4], 0.0041 µM; in test [5], 0.0041 µM.

B4: hTRT peptide p1123 (LPSDFKTIL) (peptide)
peptide: LPSDFKTIL
notes: as for B1
As for B4, the half-maximal inhibitory concentration (IC50) in test [6] was 0.005 µM; in test [1] it was 19.9 µM; in test [2], 0.0024 µM; in test [7], 1.62 µM; in test [3], 0.074 µM; in test [4] it was 0.011 µM. The molecule further returned an IC50 in test [5] of 0.011 µM.

B5: hTRT peptide p444 (DPRRLVQLL) (peptide)
peptide: DPRRLVQLL
notes: as for B1
With B5, in test [1], the IC50 amounted to 21.9 µM.

B6: hTRT peptide p342 (RPSFLLSSL) (peptide)
peptide: RPSFLLSSL
notes: as for B1
Turning to B6, the IC50 in test [1] is 12.6 µM.

Broadly, the IC50 is the concentration that inhibits the measured activity by half. A higher IC50 goes with weaker potency.

For the origin of these results see patent US20090202499A1 (University of California, published 2009).
